# According to EP4534564A1 (ImmuneOnco Biopharmaceuticals (Shanghai) Inc., dated 2025):
# B1: IMM2518 (bispecific antibody, human IgG1, kappa)
# heavy: SDTGRPFVEMYSEIPEIIHMTEGRELVIPCRVTSPNITVTLKKFPLDTLIPDGKRIIWDSRKGFIISAATYKEIGLLTCEATVNGHLYKTNYLTHRQTNTGGGGSGGGGSGGGGSQVQLVQSGAEVKKPGASVKVSCKASGYTFTSNWMHWVRQAPGQGLEWMGMIHPNSGSSNYNEKFKSRVTMTRDTSTSTVYMELSSLRSEDTAVYYCARSYYGSSPYYFDYWGQGTLVTVSSASTKGPSVFPLAPSSKSTSGGTAALGCLVKDYFPEPVTVSWNSGALTSGVHTFPAVLQSSGLYSLSSVVTVPSSSLGTQTYICNVNHKPSNTKVDKRVEPKSCDKTHTCPPCPAPELLGGPSVFLFPPKPKDTLMISRTPEVTCVVVDVSHEDPEVKFNWYVDGVEVHNAKTKPREEQYNATYRVVSVLTVLHQDWLNGKEYKCKVSNKALPAPIAATISKAKGQPREPQVYTLPPSREEMTKNQVSLTCLVKGFYPSDIAVEWESNGQPENNYKTTPPVLDSDGSFFLYSKLTVDKSRWQQGNVFSCSVMHEALHNHYTQKSLSLSPGK
# light: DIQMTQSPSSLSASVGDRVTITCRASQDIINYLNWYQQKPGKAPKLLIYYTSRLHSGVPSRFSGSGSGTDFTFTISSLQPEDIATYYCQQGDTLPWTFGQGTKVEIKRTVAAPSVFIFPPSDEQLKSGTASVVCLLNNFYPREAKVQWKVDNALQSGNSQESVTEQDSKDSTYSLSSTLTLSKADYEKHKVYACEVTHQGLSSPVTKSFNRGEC
# notes: Anti-PD-L1 IgG IMM2515H with VEGFR1D2 linked by a (G4S)3 linker to the N-terminus of each heavy chain; also called recombinant fusion protein
# B2: IMM2519 (bispecific antibody, human IgG1, kappa)
# heavy: QVQLVQSGAEVKKPGASVKVSCKASGYTFTSNWMHWVRQAPGQGLEWMGMIHPNSGSSNYNEKFKSRVTMTRDTSTSTVYMELSSLRSEDTAVYYCARSYYGSSPYYFDYWGQGTLVTVSSASTKGPSVFPLAPSSKSTSGGTAALGCLVKDYFPEPVTVSWNSGALTSGVHTFPAVLQSSGLYSLSSVVTVPSSSLGTQTYICNVNHKPSNTKVDKRVEPKSCDKTHTCPPCPAPELLGGPSVFLFPPKPKDTLMISRTPEVTCVVVDVSHEDPEVKFNWYVDGVEVHNAKTKPREEQYNATYRVVSVLTVLHQDWLNGKEYKCKVSNKALPAPIAATISKAKGQPREPQVYTLPPSREEMTKNQVSLTCLVKGFYPSDIAVEWESNGQPENNYKTTPPVLDSDGSFFLYSKLTVDKSRWQQGNVFSCSVMHEALHNHYTQKSLSLSPGK
# light: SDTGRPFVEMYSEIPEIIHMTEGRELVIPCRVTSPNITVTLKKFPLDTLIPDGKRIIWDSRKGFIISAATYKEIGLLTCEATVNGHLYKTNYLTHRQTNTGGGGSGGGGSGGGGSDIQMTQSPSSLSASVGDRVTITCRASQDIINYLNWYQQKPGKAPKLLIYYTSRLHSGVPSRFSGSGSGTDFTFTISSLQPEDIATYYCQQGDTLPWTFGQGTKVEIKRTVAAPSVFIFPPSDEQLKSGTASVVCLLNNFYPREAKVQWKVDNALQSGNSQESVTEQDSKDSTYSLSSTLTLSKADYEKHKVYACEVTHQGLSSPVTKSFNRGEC
# notes: Anti-PD-L1 IgG IMM2515H with VEGFR1D2 linked by a (G4S)3 linker to the N-terminus of each light chain; also called recombinant fusion protein
# Tests used:
# [1] = target: PD-L1 on CHO-PD-L1 cells (Cat#YMAK-C006, ImmuneOnco) (UniProt Q9NZQ7 19-290, limits assumed); test: cell-based or functional assay
# PD-L1 on CHO-PD-L1 cells (Cat#YMAK-C006, ImmuneOnco), sequence (Q9NZQ7 19-290 limits assumed): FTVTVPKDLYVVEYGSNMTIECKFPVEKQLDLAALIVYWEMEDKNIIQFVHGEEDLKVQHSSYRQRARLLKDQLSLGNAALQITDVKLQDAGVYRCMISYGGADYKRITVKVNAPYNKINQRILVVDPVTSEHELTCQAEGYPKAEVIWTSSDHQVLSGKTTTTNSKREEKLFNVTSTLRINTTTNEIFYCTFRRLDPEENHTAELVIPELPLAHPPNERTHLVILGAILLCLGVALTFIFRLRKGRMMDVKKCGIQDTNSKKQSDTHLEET
# [2] = target: T1, monkey PD-L1 (Cat#90251-C08H, sino Biological) (monkey, UniProt G7PSE7 19-238); test: BLI (Gator), human Fc probe, Kinetics Assay mode, 25 C
# T1 construct: also called PD-L1-his
# T1 sequence (G7PSE7 entry or part of it C08H C08H limits assumed, form in doubt): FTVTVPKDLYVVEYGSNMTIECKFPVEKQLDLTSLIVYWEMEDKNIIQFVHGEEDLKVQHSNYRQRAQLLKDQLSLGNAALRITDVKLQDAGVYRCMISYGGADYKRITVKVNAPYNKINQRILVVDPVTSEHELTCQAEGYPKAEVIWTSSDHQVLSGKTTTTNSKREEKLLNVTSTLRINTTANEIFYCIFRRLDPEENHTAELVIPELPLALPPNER
# [3] = target: recombinant human VEGF-165 protein (Cat#11066-HNAH, Sino Biologicals) (human, UniProt P15692-4 27-191); test: ELISA, VEGF-165 coated 50 ng/well
# recombinant human VEGF-165 protein (Cat#11066-HNAH, Sino Biologicals), sequence (P15692 other isoform, or with tags, fused parts or gaps limits assumed): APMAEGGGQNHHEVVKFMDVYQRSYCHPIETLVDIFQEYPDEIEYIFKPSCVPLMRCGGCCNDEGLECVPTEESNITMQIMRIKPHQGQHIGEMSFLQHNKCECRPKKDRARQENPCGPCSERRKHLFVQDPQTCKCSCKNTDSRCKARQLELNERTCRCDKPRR
Binder,ADCC (%lysis) against Raji-PD-L1 cells by NK92MI cells expressing FcgRIIIa (158V) [1] [fold lower than IMM2515H],Kd [2] [nM],koff [2] [s⁻¹],kon [2] [M⁻¹ s⁻¹],binding result [3]
B1,6,0.441,0.000218,494000,
B2,,,,,binds
